{"source": "patent US20130116129", "key": {"mouse IgG (Mus musculus)": {"tested_on": "mouse IgG (Mus musculus)", "experiment": "SELEX"}, "[1]": {"tested_on": "rat IgG (Rattus norvegicus)", "experiment": "SELEX", "details": "uppercase RNA, lowercase DNA"}}}
{"sequence": "CGAUAGGUGUUGAGUGGGCUCUCAGCGCUUGUUG [T1-TGGGCT]", "values": [{"measurement": "binding signal", "setting": "mouse IgG (Mus musculus); beads alone 78, p=0.014, before selection 201, p=0.123, 37 C", "result": 605, "unit": "reads"}]}
{"sequence": "CGAUAGGUGUUGAGUUGGUUCUCAGCGCUUGUUG [T1-TTGGTT]", "values": [{"measurement": "binding signal", "setting": "mouse IgG (Mus musculus); beads alone 23, p=0.048, 37 C", "result": 713, "unit": "reads"}]}
{"sequence": "CGAUAGGUGUUGAGGUGGAUCUCAGCGCUUGUUG [T1-GTGGAT]", "values": [{"measurement": "binding signal", "setting": "mouse IgG (Mus musculus); beads alone 24, p=0.014, 37 C, library assigned to SEQ 2 from six-base random region", "result": 1560, "unit": "reads"}]}
{"sequence": "CGAUAGGUGUUGAGGUUGGUCUCAGCGCUUGUUG [T1-GTTGGT]", "values": [{"measurement": "binding signal", "setting": "mouse IgG (Mus musculus); beads alone 25, p=0.035, 37 C", "result": 605, "unit": "reads"}]}
{"sequence": "CGAUAGGUGUUGAGGGCGAUCUCAGCGCUUGUUG [T1-GGCGAT]", "values": [{"measurement": "binding signal", "setting": "mouse IgG (Mus musculus); beads alone 155, p=0.037, 37 C", "result": 691, "unit": "reads"}]}
{"sequence": "CGAUAGGUGUUGAGGGGUAUCUCAGCGCUUGUUG [T1-GGGTAT]", "values": [{"measurement": "binding signal", "setting": "mouse IgG (Mus musculus); beads alone 37, p=0.039, 37 C", "result": 787, "unit": "reads"}]}
{"sequence": "CGCCTCTCCGAGAGTGTAGGGCAUACAUTCTUGGAGAGGUG [T3-AGGGCAT]", "values": [{"measurement": "binding signal", "setting": "[1]; protein G beads 3", "result": 106, "unit": "reads"}, {"measurement": "binding signal", "setting": "mouse IgG (Mus musculus); uppercase RNA, lowercase DNA, protein G beads 3", "result": 18, "unit": "reads"}]}
{"sequence": "CGAUAGGUGUUGAGGUGGGUCUCAGCGCUUGUUG [T1-GTGGGT]", "values": [{"measurement": "binding signal", "setting": "mouse IgG (Mus musculus); beads alone 136, p=0.024, 37 C", "result": 730, "unit": "reads"}]}
{"sequence": "CGAUAGGUGUUGAGUUCGAUCUCAGCGCUUGUUG [T1-TTCGAT]", "values": [{"measurement": "binding signal", "setting": "mouse IgG (Mus musculus); beads alone 44, p=0.019, 37 C", "result": 548, "unit": "reads"}]}
{"sequence": "CGCCTCTCCGAGAGTGTAUUAACCACAUTCTUGGAGAGGUG [T3-ATTAACC]", "values": [{"measurement": "binding signal", "setting": "[1]; below protein G bead background of 78", "result": 25, "unit": "reads"}, {"measurement": "binding signal", "setting": "mouse IgG (Mus musculus); uppercase RNA, lowercase DNA, protein G beads 78, 150 mM NaCl, 10 mM MgCl2", "result": 3120, "unit": "reads"}]}
